Experimental findings from PMC5685503 are described below.

The target of the experiment is isolated phosphodiesterase (PDE) domain of RhoPDE (Salpingoeca rosetta) (UniProt F2TZN0). Nature of the experiment: SEC. (In general: In gel filtration, larger molecules generally elute earlier.)

As a reminder, the stoichiometry N is a count of units in the complex or per binding partner. In turn, “isolated phosphodiesterase (PDE) domain of RhoPDE (from UniProt F2TZN0 386-702) (domain or fragment)” showed a stoichiometry N of 2.
